Data on 14 variants can be found in the supplement of paper PMC11811203.

The chains are these.
B1: THAP1; numbered along this chain (parent)
chain: MVQSCSAYGCKNRYDKDKPVSFHKFPLTRPSLCKEWEAAVRRKNFKPTKYSSICSEHFTPDCFKRECNNKLLKENAVPTIFLCTEPHDKKEDLLEPQEQLPPPPLPPPVSQVDAAIGLLMPPLQTPVNLSVFCDHNYTVEDTMHQRKRIHQLEQQVEKLRKKLKTAQQRCRRQERQLEKLKEVVHFQKEKDDVSERGYVILPNDYFEIVEVPA

Variants of B1 are the subject of the series. The experiment in a line: THAP1 transcriptional activity (GFP+/GFP- enrichment relative to wild-type constructs) (ratio to WT); higher = more THAP1 activity (PSMB5 reporter activation). The note with it: with PSMB5 promoter-GFP reporter. On the procedure:
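Deep mutational scan of human THAP1. Site-saturation single amino acid variant library (residues 2-213) was expressed by lentivirus at MOI ~0.3 in THAP1-knockout HEK-293T cells carrying an endogenous PSMB5 promoter-GFP knock-in reporter. Five days post-transduction, BFP+ cells were FACS-sorted into GFP dim and GFP bright populations and variants were counted by Illumina sequencing. Activity is the GFP-bright/GFP-dim read fold change, mean of 2 replicates, divided by the mean fold change of wild-type (synonymous) constructs in the same screen pool; WT = 1.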
Regarding MVQSCSAYGCKNRYDKDKPVSFHKFPLTRPSLCKEWEAAVRRKNFKPTKYSSICSEHFTFDCFKRECNNKLLKENAVPTIFLCTEPHDKKEDLLEPQEQLPPPPLPPPVSQVDAAIGLLMPPLQTPVNLSVFCDHNYTVEDTMHQRKRIHQLEQQVEKLRKKLKTAQQRCRRQERQLEKLKEVVHFQKEKDDVSERGYVILPNDYFEIVEVPA [P60F], the THAP1 transcriptional activity amounted to 0.333.
For MVQSCSAYGCKNRYDKDKPVSFHKFPLTRPSLCKEWEAAVRRKNFKPTKYSSICSEHFTNDCFKRECNNKLLKENAVPTIFLCTEPHDKKEDLLEPQEQLPPPPLPPPVSQVDAAIGLLMPPLQTPVNLSVFCDHNYTVEDTMHQRKRIHQLEQQVEKLRKKLKTAQQRCRRQERQLEKLKEVVHFQKEKDDVSERGYVILPNDYFEIVEVPA [P60N], the THAP1 transcriptional activity is 0.844.
The figure for MVQSCSAYGCKNRYDKDKPVSFHKFPLTRPSLCKEWEAAVRRKNFKPTKYSSICSEHFTYDCFKRECNNKLLKENAVPTIFLCTEPHDKKEDLLEPQEQLPPPPLPPPVSQVDAAIGLLMPPLQTPVNLSVFCDHNYTVEDTMHQRKRIHQLEQQVEKLRKKLKTAQQRCRRQERQLEKLKEVVHFQKEKDDVSERGYVILPNDYFEIVEVPA [P60Y] is 0.259; for MVQSCSAYGCKNRYDKDKPVSFHKFPLTRPSLCKEWEAAVRRKNFKPTKYSSICSEHFTMDCFKRECNNKLLKENAVPTIFLCTEPHDKKEDLLEPQEQLPPPPLPPPVSQVDAAIGLLMPPLQTPVNLSVFCDHNYTVEDTMHQRKRIHQLEQQVEKLRKKLKTAQQRCRRQERQLEKLKEVVHFQKEKDDVSERGYVILPNDYFEIVEVPA [P60M] it is 0.374.
As to MVQSCSAYGCKNRYDKDKPVSFHKFPLTRPSLCKEWEAAVRRKNFKPTKYSSICSEHFTWDCFKRECNNKLLKENAVPTIFLCTEPHDKKEDLLEPQEQLPPPPLPPPVSQVDAAIGLLMPPLQTPVNLSVFCDHNYTVEDTMHQRKRIHQLEQQVEKLRKKLKTAQQRCRRQERQLEKLKEVVHFQKEKDDVSERGYVILPNDYFEIVEVPA [P60W], the THAP1 transcriptional activity was 0.256.
As to MVQSCSAYGCKNRYDKDKPVSFHKFPLTRPSLCKEWEAAVRRKNFKPTKYSSICSEHFTQDCFKRECNNKLLKENAVPTIFLCTEPHDKKEDLLEPQEQLPPPPLPPPVSQVDAAIGLLMPPLQTPVNLSVFCDHNYTVEDTMHQRKRIHQLEQQVEKLRKKLKTAQQRCRRQERQLEKLKEVVHFQKEKDDVSERGYVILPNDYFEIVEVPA [P60Q], the THAP1 transcriptional activity was determined as 1.17.
On to MVQSCSAYGCKNRYDKDKPVSFHKFPLTRPSLCKEWEAAVRRKNFKPTKYSSICSEHFTRDCFKRECNNKLLKENAVPTIFLCTEPHDKKEDLLEPQEQLPPPPLPPPVSQVDAAIGLLMPPLQTPVNLSVFCDHNYTVEDTMHQRKRIHQLEQQVEKLRKKLKTAQQRCRRQERQLEKLKEVVHFQKEKDDVSERGYVILPNDYFEIVEVPA [P60R], for which the THAP1 transcriptional activity is 0.718.
With MVQSCSAYGCKNRYDKDKPVSFHKFPLTRPSLCKEWEAAVRRKNFKPTKYSSICSEHFTKDCFKRECNNKLLKENAVPTIFLCTEPHDKKEDLLEPQEQLPPPPLPPPVSQVDAAIGLLMPPLQTPVNLSVFCDHNYTVEDTMHQRKRIHQLEQQVEKLRKKLKTAQQRCRRQERQLEKLKEVVHFQKEKDDVSERGYVILPNDYFEIVEVPA [P60K], the THAP1 transcriptional activity was 0.834.
As for MVQSCSAYGCKNRYDKDKPVSFHKFPLTRPSLCKEWEAAVRRKNFKPTKYSSICSEHFTLDCFKRECNNKLLKENAVPTIFLCTEPHDKKEDLLEPQEQLPPPPLPPPVSQVDAAIGLLMPPLQTPVNLSVFCDHNYTVEDTMHQRKRIHQLEQQVEKLRKKLKTAQQRCRRQERQLEKLKEVVHFQKEKDDVSERGYVILPNDYFEIVEVPA [P60L], the figure is 0.35; as for MVQSCSAYGCKNRYDKDKPVSFHKFPLTRPSLCKEWEAAVRRKNFKPTKYSSICSEHFTSDCFKRECNNKLLKENAVPTIFLCTEPHDKKEDLLEPQEQLPPPPLPPPVSQVDAAIGLLMPPLQTPVNLSVFCDHNYTVEDTMHQRKRIHQLEQQVEKLRKKLKTAQQRCRRQERQLEKLKEVVHFQKEKDDVSERGYVILPNDYFEIVEVPA [P60S], 0.985.
For the variant MVQSCSAYGCKNRYDKDKPVSFHKFPLTRPSLCKEWEAAVRRKNFKPTKYSSICSEHFTHDCFKRECNNKLLKENAVPTIFLCTEPHDKKEDLLEPQEQLPPPPLPPPVSQVDAAIGLLMPPLQTPVNLSVFCDHNYTVEDTMHQRKRIHQLEQQVEKLRKKLKTAQQRCRRQERQLEKLKEVVHFQKEKDDVSERGYVILPNDYFEIVEVPA [P60H], the THAP1 transcriptional activity was determined as 0.509.
As for MVQSCSAYGCKNRYDKDKPVSFHKFPLTRPSLCKEWEAAVRRKNFKPTKYSSICSEHFTGDCFKRECNNKLLKENAVPTIFLCTEPHDKKEDLLEPQEQLPPPPLPPPVSQVDAAIGLLMPPLQTPVNLSVFCDHNYTVEDTMHQRKRIHQLEQQVEKLRKKLKTAQQRCRRQERQLEKLKEVVHFQKEKDDVSERGYVILPNDYFEIVEVPA [P60G], the figure is 0.443.
For the variant MVQSCSAYGCKNRYDKDKPVSFHKFPLTRPSLCKEWEAAVRRKNFKPTKYSSICSEHFTTDCFKRECNNKLLKENAVPTIFLCTEPHDKKEDLLEPQEQLPPPPLPPPVSQVDAAIGLLMPPLQTPVNLSVFCDHNYTVEDTMHQRKRIHQLEQQVEKLRKKLKTAQQRCRRQERQLEKLKEVVHFQKEKDDVSERGYVILPNDYFEIVEVPA [P60T], the THAP1 transcriptional activity came to 0.758.
Turning to MVQSCSAYGCKNRYDKDKPVSFHKFPLTRPSLCKEWEAAVRRKNFKPTKYSSICSEHFTPICFKRECNNKLLKENAVPTIFLCTEPHDKKEDLLEPQEQLPPPPLPPPVSQVDAAIGLLMPPLQTPVNLSVFCDHNYTVEDTMHQRKRIHQLEQQVEKLRKKLKTAQQRCRRQERQLEKLKEVVHFQKEKDDVSERGYVILPNDYFEIVEVPA [D61I], the THAP1 transcriptional activity stood at 0.133.
